Biological target: T1, EndoU catalytic domain (human, UniProt P21128 135-410)
T1 sequence: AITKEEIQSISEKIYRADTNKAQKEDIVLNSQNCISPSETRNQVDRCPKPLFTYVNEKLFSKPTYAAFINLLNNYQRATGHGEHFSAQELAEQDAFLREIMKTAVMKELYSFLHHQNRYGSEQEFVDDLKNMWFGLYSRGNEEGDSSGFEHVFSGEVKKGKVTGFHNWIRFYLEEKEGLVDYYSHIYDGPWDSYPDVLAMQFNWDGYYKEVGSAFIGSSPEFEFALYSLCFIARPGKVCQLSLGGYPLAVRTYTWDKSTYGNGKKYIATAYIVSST
Experiment: NMR; Ca2+ (calcium-activated EndoU); NMR: 10 mM Tris pH 7, 50 mM NaCl, 1 mM TCEP, 10% D2O, 35 C; EndoU 350 uM (Fig. 4)
Conditions: protein: recombinant; tags: GB1-His6 removed by TEV; residual N-terminal GGSEFA; single strand

Binder	binding result
AAGUCC (XNA, 2'-F at all nucleotides (non-cleavable)) [2'-fluorinated RNA AAGUCC]	binds
UUUUUU (XNA, 2'-F) [2'F (U)6 RNA]	binds
